Experimental data taken from PMC4873976, “Structural basis for haem piracy from host haemopexin by Haemophilus influenzae” (Nature Communications, 2016).

T1: HxuA, cysteine-less variant (cysteines 855 and 861 replaced by serines; referred to as HxuA throughout) (Haemophilus influenzae, UniProt P44602 22-905, cysteine at position 855 replaced by serine | cysteine at position 861 replaced …)
T1 construct: HxuA, haem-haemopexin utilisation protein A (TpsA cargo protein) of Haemophilus influenzae, called full-length, 884 residues, Ser1 to Gln884; Measured mass 96,467.6094 (theoretical 96,469.6926); also called HxuAdm; dm variant; source: E. coli BL21, pBAD24 derivative with the hxuCBA operon; purified from the culture supernatant (ammonium sulfate, SEC, monoQ)
T1 sequence: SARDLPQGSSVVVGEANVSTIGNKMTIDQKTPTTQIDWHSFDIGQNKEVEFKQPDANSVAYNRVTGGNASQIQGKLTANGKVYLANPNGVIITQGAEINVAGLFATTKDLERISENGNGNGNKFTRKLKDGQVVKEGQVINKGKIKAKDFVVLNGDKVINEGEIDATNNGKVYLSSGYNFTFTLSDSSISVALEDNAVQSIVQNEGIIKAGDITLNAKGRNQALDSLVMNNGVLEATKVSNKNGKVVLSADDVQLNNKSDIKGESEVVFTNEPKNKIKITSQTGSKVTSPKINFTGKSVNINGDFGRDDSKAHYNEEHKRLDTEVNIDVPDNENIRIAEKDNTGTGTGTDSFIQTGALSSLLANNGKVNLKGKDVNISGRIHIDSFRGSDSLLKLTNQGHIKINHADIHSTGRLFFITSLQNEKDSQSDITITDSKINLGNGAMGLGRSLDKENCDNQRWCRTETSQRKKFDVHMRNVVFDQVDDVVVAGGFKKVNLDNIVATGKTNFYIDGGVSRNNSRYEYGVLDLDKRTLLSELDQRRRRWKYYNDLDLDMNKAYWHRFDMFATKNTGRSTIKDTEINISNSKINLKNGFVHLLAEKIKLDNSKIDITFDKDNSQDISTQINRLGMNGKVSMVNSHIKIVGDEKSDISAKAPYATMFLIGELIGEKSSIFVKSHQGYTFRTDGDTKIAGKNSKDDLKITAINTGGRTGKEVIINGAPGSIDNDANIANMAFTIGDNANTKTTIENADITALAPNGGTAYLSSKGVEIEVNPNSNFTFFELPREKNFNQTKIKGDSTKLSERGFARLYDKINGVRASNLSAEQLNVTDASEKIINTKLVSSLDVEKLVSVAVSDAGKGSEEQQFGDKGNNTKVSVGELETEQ

T2: cysteine-less variant of HxuA^Asp726Ala (Haemophilus influenzae, UniProt P44602 22-905, Asp726Ala | cysteine at position 855 replaced by serine | cysteine at position …)
T2 construct: HxuA of Haemophilus influenzae, as m1 with Asp726Ala; also called dm variant of HxuA^Asp726Ala; source: E. coli, purified from the supernatant (same protocol as HxuA)
T2 sequence: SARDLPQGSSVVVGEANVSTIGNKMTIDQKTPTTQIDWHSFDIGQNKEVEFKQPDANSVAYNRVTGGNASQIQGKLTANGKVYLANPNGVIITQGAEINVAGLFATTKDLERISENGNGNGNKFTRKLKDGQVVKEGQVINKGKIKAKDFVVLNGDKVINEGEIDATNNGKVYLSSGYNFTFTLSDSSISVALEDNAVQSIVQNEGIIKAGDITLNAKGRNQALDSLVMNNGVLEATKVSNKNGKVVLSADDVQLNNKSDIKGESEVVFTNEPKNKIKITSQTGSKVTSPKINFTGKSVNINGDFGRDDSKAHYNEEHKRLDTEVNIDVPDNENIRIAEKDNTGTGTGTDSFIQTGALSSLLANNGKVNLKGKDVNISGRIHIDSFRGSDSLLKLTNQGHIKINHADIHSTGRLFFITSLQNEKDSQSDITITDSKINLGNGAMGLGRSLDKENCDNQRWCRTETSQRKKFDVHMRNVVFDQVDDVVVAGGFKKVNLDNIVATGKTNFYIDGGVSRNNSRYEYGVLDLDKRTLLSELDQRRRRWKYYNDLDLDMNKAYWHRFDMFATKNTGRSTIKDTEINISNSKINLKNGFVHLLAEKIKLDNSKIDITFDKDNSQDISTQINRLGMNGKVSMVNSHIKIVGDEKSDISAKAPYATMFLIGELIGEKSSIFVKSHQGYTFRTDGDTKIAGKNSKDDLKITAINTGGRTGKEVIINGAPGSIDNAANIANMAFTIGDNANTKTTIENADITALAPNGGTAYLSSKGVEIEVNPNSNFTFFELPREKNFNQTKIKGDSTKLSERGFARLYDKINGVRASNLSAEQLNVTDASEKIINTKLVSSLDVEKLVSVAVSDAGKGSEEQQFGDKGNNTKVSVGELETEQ

T3: Haemopexin (Oryctolagus cuniculus, UniProt P20058)
T3 chain: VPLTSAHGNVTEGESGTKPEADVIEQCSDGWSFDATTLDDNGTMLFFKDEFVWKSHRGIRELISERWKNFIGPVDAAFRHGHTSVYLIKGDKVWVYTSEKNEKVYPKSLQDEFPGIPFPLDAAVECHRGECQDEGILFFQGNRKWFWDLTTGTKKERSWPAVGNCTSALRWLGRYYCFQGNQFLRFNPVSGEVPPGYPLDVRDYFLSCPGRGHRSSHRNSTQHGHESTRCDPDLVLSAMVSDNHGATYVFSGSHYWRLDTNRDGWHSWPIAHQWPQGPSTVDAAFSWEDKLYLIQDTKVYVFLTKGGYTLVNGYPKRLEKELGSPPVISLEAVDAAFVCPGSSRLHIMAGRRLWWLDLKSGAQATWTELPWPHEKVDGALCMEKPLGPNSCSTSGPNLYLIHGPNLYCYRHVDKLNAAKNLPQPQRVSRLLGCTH


Experiments:
[1] = target: T1, HxuA, cysteine-less variant (cysteines …); assay: ITC; haemopexin or its fragments (~100 μM) in the syringe, HxuA (~10 μM) in the cell; 20 mM Na-phosphate pH 7.0, 25 °C; single-site model; apparent Ka; conditions: both partners purified
[2] = target: T2, cysteine-less variant of HxuA^Asp726Ala; assay: as above; conditions: both partners purified
[3] = target: T3, Haemopexin; assay: ITC; given as Ka

Row | Binder | Ka [1] [M⁻¹] | dH [1] [kcal/mol] | Ka [2] [M⁻¹] | dH [2] [kcal/mol] | Kd [3] [nM]
1 | rabbit haem-haemopexin (natural protein, also called He-Hpx; source: purified from rabbit serum (Biosera), haem-loaded) VPLTSAHGNVTEGESGTKPEADVIEQCSDGWSFDATTLDDNGTMLFFKDEFVWKSHRGIRELISERWKNFIGPVDAAFRHGHTSVYLIKGDKVWVYTSEKNEKVYPKSLQDEFPGIPFPLDAAVECHRGECQDEGILFFQGNRKWFWDLTTGTKKERSWPAVGNCTSALRWLGRYYCFQGNQFLRFNPVSGEVPPGYPLDVRDYFLSCPGRGHRSSHRNSTQHGHESTRCDPDLVLSAMVSDNHGATYVFSGSHYWRLDTNRDGWHSWPIAHQWPQGPSTVDAAFSWEDKLYLIQDTKVYVFLTKGGYTLVNGYPKRLEKELGSPPVISLEAVDAAFVCPGSSRLHIMAGRRLWWLDLKSGAQATWTELPWPHEKVDGALCMEKPLGPNSCSTSGPNLYLIHGPNLYCYRHVDKLNAAKNLPQPQRVSRLLGCTH | > 1e+09 | -39.8 | 2.9e+06 | -12.8 | 
2 | HxuA (protein) STQGLPQQGLPQQGLPQEDKVVVGQATFDKTIADKMTINQTSDKVQINWHSFDIGQNKEVEFKQPSENSVAYNRVTGGNASQIQGKLTANGKVYLANPNGVIITKGAEINVAGLLATTKDLEQISENSNSYQFTRKTKDRQVVKEGQVINEGEIKAKDFVVLNGDEVINKGNINVEKNSTINGKVYLSSGYNFTFTLSDSGISVALEDNTVRGIVQNEGSIKAGEITLSAKGRKEALDSLVMNNGVLEATKVSNRNGKVVLSADNVQLNNESNIKGEIVNFGTEVTSNEDKKLKITSKTGSKVTSPKINFKGKSVNINGNFGRENSGTHYNEERKTLNTEVNIDVPGAENIRIADDKDNTETDSFIQTEALSSLLANNGKVNLKGNDVNISGNINIDSFRGTDSLLKLTNQGHINIDHADINSKGRLFVVTSLQNDVDFKSNITITDSKINLGNGAMGLGRSVNEDDYATRWKRAEKSQRKKFNVDMRNVVFNQVDEVILAGGFEKVNLDKIVATGQTNFYIDGGVSRNNSRYEYGVLDLDYRTQLSELEQGRRRWRYYRDLDLDMNKAYLYRFDLFAKNNSGRSTIKGTEINISNSNINLKNGFVHLLAENIKLDNSKVDITFDKDNSQDTLAQTNRLGMNGKVSMINSHIKIVGDEKEGISPTGTYATMFLIGELIGEKSSIFVKSHQGYTFKTDGDTKIAGKNSKEDLKITAINTGGRAAEEVLINGALGSADNDANIANMAFTIGDSANTKTTIENADITALAPNGGTAYLSSKDVEIEVKPNSNFTFFELPREKNLNQTKINGASTKLSERGFARLYDKINGVRASNLSAEQLNVTDASEKIINTKLVSSLDVEKLVSVAVCDAGNGCEEQQFGDKGNNTKVSVGELEAEQ |  |  |  |  | < 1
